Results published in US6074851A, “Catalytic macro molecules having cdc25B like activity” (Pharmacia & UpJohn Company, priority 1997, dated 2000).

Tests used:
[1] = target: GST-cdc25B (residues 355-566) fusion protein (Homo sapiens, UniProt P30305); conditions: PNPP as substrate, 37° C.; cited from earlier work
[2] = substrate: O=[N+]([O-])c1ccc(OP(=O)(O)O)cc1; test: purified protein, by the assay type; conditions: other: PNPP as substrate, 25° C., pH 8.0

Molecule	Km [1]	Km [2]	Vmax [2]
O=[N+]([O-])c1ccc(OP(=O)(O)O)cc1 [PNPP, p-nitrophenyl phosphate]	16.6 mM	–	–
human cdc25B (356-556) minimal catalytic domain, Val356-Arg556, GST-free, Form II, SEQ ID NO: 9 (Homo sapiens) (protein) VLRSKSLCHDEIENLLDSDHRELIGDYSKAFLLQTVDGKHQDLKYISPETMVALLTGKFSNIVDKFVIVDCRYPYEYEGGHIKTAVNLPLERDAESFLLKSPIAPCSLDKRVILIFHCEFSSERGPRMCRFIRERDRAVNDYPSLYYPEMYILKGGYKEFFPQHPNFCEPQDYRPMNHEAFKDELKTFRLKTRSWAGERSR	–	2.0 mM	–
human cdc25B Mutein3, cdc25B (356-566) with Arg556Lys/Arg557Lys, SEQ ID NO: 23 (Homo sapiens; R570K/R571K) (protein) VLRSKSLCHDEIENLLDSDHRELIGDYSKAFLLQTVDGKHQDLKYISPETMVALLTGKFSNIVDKFVIVDCRYPYEYEGGHIKTAVNLPLERDAESFLLKSPIAPCSLDKRVILIFHCEFSSERGPRMCRFIRERDRAVNDYPSLYYPEMYILKGGYKEFFPQHPNFCEPQDYRPMNHEAFKDELKTFRLKTRSWAGERSKKELCSRLQDQ	–	2.0 mM	–
near full length GST-cdc25B (31-566) fusion protein (Homo sapiens) (protein) GLLLGSHGLLGSPVRAAASSPVTTLTQTMHDLAGLGSRSRLTHLSLSRRASESSLSSESSESSDAGLCMDSPSPMDPHMAEQTFEQAIQAASRIIRNEQFAIRRFQSMPVRLLGHSPVLRNITNSQAPDGRRKSEAGSGAASSSGEDKENDGFVFKMPWKPTHPSSTHALAEWASRREAFAQRPSSAPDLMCLSPDRKMEVEELSPLALGRFSLTPAEGDTEEDDGFVDILESDLKDDDAVPPGMESLISAPLVKTLEKEEEKDLVMYSKCQRLFRSPSMPCSVIRPILKRLERPQDRDTPVQNKRRRSVTPPEEQQEAEEPKARVLRSKSLCHDEIENLLDSDHRELIGDYSKAFLLQTVDGKHQDLKYISPETMVALLTGKFSNIVDKFVIVDCRYPYEYEGGHIKTAVNLPLERDAESFLLKSPIAPCSLDKRVILIFHCEFSSERGPRMCRFIRERDRAVNDYPSLYYPEMYILKGGYKEFFPQHPNFCEPQDYRPMNHEAFKDELKTFRLKTRSWAGERSRRELCSRLQDQ	–	12.0 mM	–
human cdc25B (364-529) VHR-like catalytic domain, GST-free, GIQ-cdc25B (364-529), SEQ ID NO: 24 (Homo sapiens) (protein) HDEIENLLDSDHRELIGDYSKAFLLQTVDGKHQDLKYISPETMVALLTGKFSNIVDKFVIVDCRYPYEYEGGHIKTAVNLPLERDAESFLLKSPIAPCSLDKRVILIFHCEFSSERGPRMCRFIRERDRAVNDYPSLYYPEMYILKGGYKEFFPQHPNFCEPQDYR	–	28 mM	250 nmol/min/mg
